Source: patent US20190374506A1 (BETH ISREAL DEACONESS MEDICAL CENTER, published 2019)

The binders below were run against T1, HA-PTEN (human, UniProt P60484 1-403) (assay: anti-PTEN immunoprecipitation from DU145 cells transfected with HA-PTEN, SDS-PAGE, mass-spectrometric peptide sequencing of the bands (association in the precipitate)).
T1 construct: Expressed in DU145 cells and immunoprecipitated with anti-PTEN antibody for mass spectrometry; also called exogenous PTEN; pcDNA3-HA-PTEN; not shown: HA tag
Text: FIG. 2A is a Western blot. Lysates from DU145 cells transfected with HA-PTEN were immunoprecipitated with an anti-PTEN antibody followed by mass-spectrometric peptide sequencing. WWP1 and NEDD4-1 were identified.
In order to identify the E3 ligases that induce PTEN atypical K27-linked poly-ubiquitination, exogenous PTEN was immunoprecipitated from DU145 cells, followed by identification of the proteins that interacted with PTEN by mass spectrometry (FIG. 2A; FIG. 18).

Binder | binding result
Clustered mitochondria protein homolog (other) MLLNGDCPESLKKEAAAAEPPRENGLDEAGPGDETTGQEVIVIQDTGFSVKILAPGIEPFSLQVSPQEMVQEIHQVLMDREDTCHRTCFSLHLDGNVLDHFSELRSVEGLQEGSVLRVVEEPYTVREARIHVRHVRDLLKSLDPSDAFNGVDCNSLSFLSVFTDGDLGDSGKRKKGLEMDPIDCTPPEYILPGSRERPLCPLQPQNRDWKPLQCLKVLTMSGWNPPPGNRKMHGDLMYLFVITAEDRQVSITASTRGFYLNQSTAYHFNPKPASPRFLSHSLVELLNQISPTFKKNFAVLQKKRVQRHPFERIATPFQVYSWTAPQAEHAMDCVRAEDAYTSRLGYEEHIPGQTRDWNEELQTTRELPRKNLPERLLRERAIFKVHSDFTAAATRGAMAVIDGNVMAINPSEETKMQMFIWNNIFFSLGFDVRDHYKDFGGDVAAYVAPTNDLNGVRTYNAVDVEGLYTLGTVVVDYRGYRVTAQSIIPGILERDQEQSVIYGSIDFGKTVVSHPRYLELLERTSRPLKILRHQVLNDRDEEVELCSSVECKGIIGNDGRHYILDLLRTFPPDLNFLPVPGEELPEECARAGFPRAHRHKLCCLRQELVDAFVEHRYLLFMKLAALQLMQQNASQLETPSSLENGGPSSLESKSEDPPGQEAGSEEEGSSASGLAKVKELAETIAADDGTDPRSREVIRNACKAVGSISSTAFDIRFNPDIFSPGVRFPESCQDEVRDQKQLLKDAAAFLLSCQIPGLVKDCMEHAVLPVDGATLAEVMRQRGINMRYLGKVLELVLRSPARHQLDHVFKIGIGELITRSAKHIFKTYLQGVELSGLSAAISHFLNCFLSSYPNPVAHLPADELVSKKRNKRRKNRPPGAADNTAWAVMTPQELWKNICQEAKNYFDFDLECETVDQAVETYGLQKITLLREISLKTGIQVLLKEYSFDSRHKPAFTEEDVLNIFPVVKHVNPKASDAFHFFQSGQAKVQQGFLKEGCELINEALNLFNNVYGAMHVETCACLRLLARLHYIMGDYAEALSNQQKAVLMSERVMGTEHPNTIQEYMHLALYCFASSQLSTALSLLYRARYLMLLVFGEDHPEMALLDNNIGLVLHGVMEYDLSLRFLENALAVSTKYHGPKALKVALSHHLVARVYESKAEFRSALQHEKEGYTIYKTQLGEDHEKTKESSEYLKCLTQQAVALQRTMNEIYRNGSSANIPPLKFTAPSMASVLEQLNVINGILFIPLSQKDLENLKAEVARRHQLQEASRNRDRAEEPMATEPAPAGAPGDLGSQPPAAKDPSPSVQG | binds
Structural maintenance of chromosomes protein 3 (other) MYIKQVIIQGFRSYRDQTIVDPFSSKHNVIVGRNGSGKSNFFYAIQFVLSDEFSHLRPEQRLALLHEGTGPRVISAFVEIIFDNSDNRLPIDKEEVSLRRVIGAKKDQYFLDKKMVTKNDVMNLLESAGFSRSNPYYIVKQGKINQMATAPDSQRLKLLREVAGTRVYDERKEESISLMKETEGKREKINELLKYIEERLHTLEEEKEELAQYQKWDKMRRALEYTIYNQELNETRAKLDELSAKRETSGEKSRQLRDAQQDARDKMEDIERQVRELKTKISAMKEEKEQLSAERQEQIKQRTKLELKAKDLQDELAGNSEQRKRLLKERQKLLEKIEEKQKELAETEPKFNSVKEKEERGIARLAQATQERTDLYAKQGRGSQFTSKEERDKWIKKELKSLDQAINDKKRQIAAIHKDLEDTEANKEKNLEQYNKLDQDLNEVKARVEELDRKYYEVKNKKDELQSERNYLWREENAEQQALAAKREDLEKKQQLLRAATGKAILNGIDSINKVLDHFRRKGINQHVQNGYHGIVMNNFECEPAFYTCVEVTAGNRLFYHIVDSDEVSTKILMEFNKMNLPGEVTFLPLNKLDVRDTAYPETNDAIPMISKLRYNPRFDKAFKHVFGKTLICRSMEVSTQLARAFTMDCITLEGDQVSHRGALTGGYYDTRKSRLELQKDVRKAEEELGELEAKLNENLRRNIERINNEIDQLMNQMQQIETQQRKFKASRDSILSEMKMLKEKRQQSEKTFMPKQRSLQSLEASLHAMESTRESLKAELGTDLLSQLSLEDQKRVDALNDEIRQLQQENRQLLNERIKLEGIITRVETYLNENLRKRLDQVEQELNELRETEGGTVLTATTSELEAINKRVKDTMARSEDLDNSIDKTEAGIKELQKSMERWKNMEKEHMDAINHDTKELEKMTNRQGMLLKKKEECMKKIRELGSLPQEAFEKYQTLSLKQLFRKLEQCNTELKKYSHVNKKALDQFVNFSEQKEKLIKRQEELDRGYKSIMELMNVLELRKYEAIQLTFKQVSKNFSEVFQKLVPGGKATLVMKKGDVEGSQSQDEGEGSGESERGSGSQSSVPSVDQFTGVGIRVSFTGKQGEMREMQQLSGGQKSLVALALIFAIQKCDPAPFYLFDEIDQALDAQHRKAVSDMIMELAVHAQFITTTFRPELLESADKFYGVKFRNKVSHIDVITAEMAKDFVEDDTTHG | binds
Huntingtin-interacting protein 1-related protein (other) MNSIKNVPARVLSRRPGHSLEAEREQFDKTQAISISKAINTQEAPVKEKHARRIILGTHHEKGAFTFWSYAIGLPLPSSSILSWKFCHVLHKVLRDGHPNVLHDCQRYRSNIREIGDLWGHLHDRYGQLVNVYTKLLLTKISFHLKHPQFPAGLEVTDEVLEKAAGTDVNNIFQLTVEMFDYMDCELKLSESVFRQLNTAIAVSQMSSGQCRLAPLIQVIQDCSHLYHYTVKLLFKLHSCLPADTLQGHRDRFHEQFHSLRNFFRRASDMLYFKRLIQIPRLPEGPPNFLRASALAEHIKPVVVIPEEAPEDEEPENLIEISTGPPAGEPVVVADLFDQTFGPPNGSVKDDRDLQIESLKREVEMLRSELEKIKLEAQRYIAQLKSQVNALEGELEEQRKQKQKALVDNEQLRHELAQLRAAQLEGERSQGLREEAERKASATEARYNKLKEKHSELVHVHAELLRKNADTAKQLTVTQQSQEEVARVKEQLAFQVEQVKRESELKLEEKSDQLEKLKRELEAKAGELARAQEALSHTEQSKSELSSRLDTLSAEKDALSGAVRQREADLLAAQSLVRETEAALSREQQRSSQEQGELQGRLAERESQEQGLRQRLLDEQFAVLRGAAAEAAGILQDAVSKLDDPLHLRCTSSPDYLVSRAQEALDAVSTLEEGHAQYLTSLADASALVAALTRFSHLAADTIINGGATSHLAPTDPADRLIDTCRECGARALELMGQLQDQQALRHMQASLVRTPLQGILQLGQELKPKSLDVRQEELGAVVDKEMAATSAAIEDAVRRIEDMMNQARHASSGVKLEVNERILNSCTDLMKAIRLLVTTSTSLQKEIVESGRGAATQQEFYAKNSRWTEGLISASKAVGWGATQLVEAADKVVLHTGKYEELIVCSHEIAASTAQLVAASKVKANKHSPHLSRLQECSRTVNERAANVVASTKSGQEQIEDRDTMDFSGLSLIKLKKQEMETQVRVLELEKTLEAERMRLGELRKQHYVLAGASGSPGEEVAIRPSTAPRSVTTKKPPLAQKPSVAPRQDHQLDKKDGIYPAQLVNY | binds

Other lines, results leading:

binding result | Binder
binds | Heterogeneous nuclear ribonucleoprotein U-like protein 1 (other) MDVRRLKVNELREELQRRGLDTRGLKAELAERLQAALEAEEPDDERELDADDEPGRPGHINEEVETEGGSELEGTAQPPPPGLQPHAEPGGYSGPDGHYAMDNITRQNQFYDTQVIKQENESGYERRPLEMEQQQAYRPEMKTEMKQGAPTSFLPPEASQLKPDRQQFQSRKRPYEENRGRGYFEHREDRRGRSPQPPAEEDEDDFDDTLVAIDTYNCDLHFKVARDRSSGYPLTIEGFAYLWSGARASYGVRRGRVCFEMKINEEISVKHLPSTEPDPHVVRIGWSLDSCSTQLGEEPFSYGYGGTGKKSTNSRFENYGDKFAENDVIGCFADFECGNDVELSFTKNGKWMGIAFRIQKEALGGQALYPHVLVKNCAVEFNFGQRAEPYCSVLPGFTFIQHLPLSERIRGTVGPKSKAECEILMMVGLPAAGKTTWAIKHAASNPSKKYNILGTNAIMDKMRVMGLRRQRNYAGRWDVLIQQATQCLNRLIQIAARKKRNYILDQTNVYGSAQRRKMRPFEGFQRKAIVICPTDEDLKDRTIKRTDEEGKDVPDHAVLEMKANFTLPDVGDFLDEVLFIELQREEADKLVRQYNEEGRKAGPPPEKRFDNRGGGGFRGRGGGGGFQRYENRGPPGGNRGGFQNRGGGSGGGGNYRGGFNRSGGGGYSQNRWGNNNRDNNNSNNRGSYNRAPQQQPPPQQPPPPQPPPQQPPPPPSYSPARNPPGASTYNKNSNIPGSSANTSTPTVSSYSPPQPSYSQPPYNQGGYSQGYTAPPPPPPPPPAYNYGSYGGYNPAPYTPPPPPTAQTYPQPSYNQYQQYAQQWNQYYQNQGQWPPYYGNYDYGSYSGNTQGGTSTQ
binds | Structural maintenance of chromosomes protein 1A (other) MGFLKLIEIENFKSYKGRQIIGPFQRFTAIIGPNGSGKSNLMDAISFVLGEKTSNLRVKTLRDLIHGAPVGKPAANRAFVSMVYSEEGAEDRTFARVIVGGSSEYKINNKVVQLHEYSEELEKLGILIKARNFLVFQGAVESIAMKNPKERTALFEEISRSGELAQEYDKRKKEMVKAEEDTQFNYHRKKNIAAERKEAKQEKEEADRYQRLKDEVVRAQVQLQLFKLYHNEVEIEKLNKELASKNKEIEKDKKRMDKVEDELKEKKKELGKMMREQQQIEKEIKEKDSELNQKRPQYIKAKENTSHKIKKLEAAKKSLQNAQKHYKKRKGDMDELEKEMLSVEKARQEFEERMEEESQSQGRDLTLEENQVKKYHRLKEEASKRAATLAQELEKFNRDQKADQDRLDLEERKKVETEAKIKQKLREIEENQKRIEKLEEYITTSKQSLEEQKKLEGELTEEVEMAKRRIDEINKELNQVMEQLGDARIDRQESSRQQRKAEIMESIKRLYPGSVYGRLIDLCQPTQKKYQIAVTKVLGKNMDAIIVDSEKTGRDCIQYIKEQRGEPETFLPLDYLEVKPTDEKLRELKGAKLVIDVIRYEPPHIKKALQYACGNALVCDNVEDARRIAFGGHQRHKTVALDGTLFQKSGVISGGASDLKAKARRWDEKAVDKLKEKKERLTEELKEQMKAKRKEAELRQVQSQAHGLQMRLKYSQSDLEQTKTRHLALNLQEKSKLESELANFGPRINDIKRIIQSREREMKDLKEKMNQVEDEVFEEFCREIGVRNIREFEEEKVKRQNEIAKKRLEFENQKTRLGIQLDFEKNQLKEDQDKVHMWEQTVKKDENEIEKLKKEEQRHMKIIDETMAQLQDLKNQHLAKKSEVNDKNHEMEEIRKKLGGANKEMTHLQKEVTAIETKLEQKRSDRHNLLQACKMQDIKLPLSKGTMDDISQEEGSSQGEDSVSGSQRISSIYAREALIEIDYGDLCEDLKDAQAEEEIKQEMNTLQQKLNEQQSVLQRIAAPNMKAMEKLESVRDKFQETSDEFEAARKRAKKAKQAFEQIKKERFDRFNACFESVATNIDEIYKALSRNSSAQAFLGPENPEEPYLDGINYNCVAPGKRFRPMDNLSGGEKTVAALALLFAIHSYKPAPFFVLDEIDAALDNTNIGKVANYIKEQSTCNFQAIVISLKEEFYTKAESLIGVYPEQGDCVISKVLTFDLTKYPDANPNPNEQ
